We go through 20 molecules from US20240132593A1 (KINETA, published 2024).

Positions count from the first letter of the chain named. In names and notes the source's numbering stands.

Assay [1] deals with T1, Antibody No. 465.1.
T1 construct: also called Ab No. 465.1
In words: peptide blocking ELISA on plate-bound VISTA, peptide 20 ug/mL.

The target of assay [2] is VSTB174. Described as above.
For assay [3], the target named is Antibody No. 245.1. The assay is described as above.
In assay [4] the target is T1, Antibody No. 465.1. In words: peptide blocking ELISA on plate-bound VISTA, peptide 2 ug/mL. In general terms: An ELISA detects its analyte on a solid surface through an enzyme-linked reagent.
The target of assay [5] is VSTB174. The assay is described as above.
For assay [6], the target named is Antibody No. 245.1. The description is as above.
The target in assay [7] is T2, VISTA-His ECD (Sino Biological 13482-H08H) (human, UniProt Q9H7M9 33-194).
T2 construct: Bought protein; also called VISTA-ECD; not shown: His tag
In words: BLI (Octet K2), ratio of the pH 6.0 fold change to the pH 7.4 fold change.

For assay [8], the target named is T2, VISTA-His ECD (Sino Biological …). In words: BLI (Octet K2), ratio of off-rates at pH 7.4 to control Ab No. 245.1.

Sequence of VSTB174 (VH, as listed by the source, chain 1 of 2): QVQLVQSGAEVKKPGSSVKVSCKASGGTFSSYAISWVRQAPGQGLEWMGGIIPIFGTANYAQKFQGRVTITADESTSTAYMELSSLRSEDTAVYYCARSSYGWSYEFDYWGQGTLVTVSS
Sequence of VSTB174 (VL, as listed by the source, chain 2 of 2): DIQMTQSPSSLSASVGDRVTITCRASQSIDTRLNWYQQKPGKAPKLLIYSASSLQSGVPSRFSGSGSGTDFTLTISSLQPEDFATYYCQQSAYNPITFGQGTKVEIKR

B1: Spiked Peptide 31 (SSSQESENITAA) (peptide)
peptide: SSSQESENITAA
notes: synthetic overlapping peptide from human VISTA
With B1, the “percent reduction in ELISA signal” value in assay [1] is 5%; in assay [2] it was 27%; in assay [3] it was 8%; in assay [4], 0%; in assay [5], 15%; in assay [6] it was 0%.

B2: Spiked Peptide 24 (VVEIRHHHSEHRVHG) (peptide)
peptide: VVEIRHHHSEHRVHG
notes: as for B1
Consider B2, for which the “percent reduction in ELISA signal” value was 43% in assay [1]; 82% in assay [2]; 41% in assay [3]; 16% in assay [4]; 48% in assay [5]; 8% in assay [6].

B3: Spiked Peptide 25 (HHHSEHRVHGAMELQ) (peptide)
peptide: HHHSEHRVHGAMELQ
notes: as for B1
For B3, the “percent reduction in ELISA signal” value worked out at 67% in assay [1]; 83% in assay [2]; 52% in assay [3]; 10% in assay [4]; 45% in assay [5]; 10% in assay [6].

B4: Spiked Peptide 27 (AMELQVQTGKDAPSN) (peptide)
peptide: AMELQVQTGKDAPSN
notes: as for B1
For B4, the “percent reduction in ELISA signal” value in assay [1] came to 3%; in assay [2], 24%; in assay [3], 0%; in assay [4] it was 0%; in assay [5] it was 13%; in assay [6], 0%.

B5: Spiked Peptide 30 (CVVYPSSSQESENIT) (peptide)
peptide: CVVYPSSSQESENIT
notes: as for B1
On to B5, for which the “percent reduction in ELISA signal” value in assay [1] turned out to be 0%; in assay [2] it was 21%; in assay [3], 0%; in assay [4] it was 0%; in assay [5] it was 12%; in assay [6] it was 0%.

B6: Spiked Peptide 29 (DAPSNCVVYPSSSQE) (peptide)
peptide: DAPSNCVVYPSSSQE
notes: as for B1
Regarding B6, the “percent reduction in ELISA signal” value in assay [1] is 14%; in assay [2], 10%; in assay [3], 0%; in assay [4], 0%; in assay [5], 8%; in assay [6], 0%.

B7: Spiked Peptide 28 (VQTGKDAPSNCVVYP) (peptide)
peptide: VQTGKDAPSNCVVYP
notes: as for B1
As to B7, the “percent reduction in ELISA signal” value turned out to be 0% in assay [1]; 5% in assay [2]; 5% in assay [3]; 0% in assay [4]; 0% in assay [5]; 0% in assay [6].

B8: Antibody No. 474.1 with VH Y32H, VH Y52H (antibody, V domains shown)
VH: QVQLQESGPGLVKPSETLSLTCTVSGGSISSHYWSWIRQPPGKGLEWIGYIHYSGSTNYNPSLKSRVTISVDTSKSQFSLKLSSVTAADTAVYYCARDIPAFAFDIWGQGTMVIVSS
VL: EIVLTQSPATLSLSPGERATLSCRASQSVSYYLAWYQQKPGQAPRLLIYDAFNRATGIPARFSGSGSGTDFTLTISSLEPEDFAVYYCQQRINWPLTFGGGTKVEIK
Regarding B8, the “ΔKdis (pH 6.0)/ΔKdis (pH 7.4)” value in assay [7] was 3.4. Also, the “Kdis (pH 7.4) ÷ Kdis, Ab No. 245.1 (pH 7.4)” value (“Kdis … Ab No. 245.1 (pH 7.4)” for short) in assay [8] worked out at 5 s⁻¹.

B9: Antibody No. 474.1 with VL Y31H, VH Y32H, VH Y33H (antibody, V domains shown)
VH: B8 VH with Y33H, H52Y
VL: B8 VL with Y31H
Consider B9, for which, in assay [7], the “ΔKdis (pH 6.0)/ΔKdis (pH 7.4)” value worked out at 1.5. Moreover, in assay [8], the “Kdis … Ab No. 245.1 (pH 7.4)” value was found to be 68 s⁻¹.

B10: Antibody No. 474.1 with VL Y31H, VH Y32H (antibody, V domains shown)
VH: B8 VH with H52Y
VL: B8 VL with Y31H
B10: in assay [7], the “ΔKdis (pH 6.0)/ΔKdis (pH 7.4)” value is 5.8. Besides, the “Kdis … Ab No. 245.1 (pH 7.4)” value in assay [8] is 12 s⁻¹.

B11: Antibody No. 474.1 with VL Y32H, VH Y32H, VH Y52H (antibody, V domains shown)
VH: B8 VH
VL: B8 VL with Y32H
B11: the “ΔKdis (pH 6.0)/ΔKdis (pH 7.4)” value in assay [7] turned out to be 1.8. In assay [8], the “Kdis … Ab No. 245.1 (pH 7.4)” value came to 71 s⁻¹.

B12: Antibody No. 474.1 with VH Y32H, VH Y33H (antibody, V domains shown)
VH: B8 VH with Y33H, H52Y
VL: B8 VL
Regarding B12, the “ΔKdis (pH 6.0)/ΔKdis (pH 7.4)” value in assay [7] turned out to be 6.9. The “Kdis … Ab No. 245.1 (pH 7.4)” value in assay [8] is 4 s⁻¹.

B13: Antibody No. 474.1 with VL Y32H, VH Y33H (antibody, V domains shown)
VH: B8 VH with H32Y, Y33H, H52Y
VL: B8 VL with Y32H
B13: the “ΔKdis (pH 6.0)/ΔKdis (pH 7.4)” value in assay [7] is 2.7. Moreover, the “Kdis … Ab No. 245.1 (pH 7.4)” value in assay [8] turned out to be 52 s⁻¹.

B14: Antibody No. 474.1 with VL Y32H, VH Y32H, VH Y33H (antibody, V domains shown)
VH: B8 VH with Y33H, H52Y
VL: B8 VL with Y32H
For the molecule B14, in assay [7], the “ΔKdis (pH 6.0)/ΔKdis (pH 7.4)” value amounted to 2.4. In addition, in assay [8], the “Kdis … Ab No. 245.1 (pH 7.4)” value worked out at 56 s⁻¹.

B15: Antibody No. 474.1 with VL Y32H, VH Y32H (antibody, V domains shown)
VH: B8 VH with H52Y
VL: B8 VL with Y32H
Turning to B15, the “ΔKdis (pH 6.0)/ΔKdis (pH 7.4)” value in assay [7] came to 5.9. The “Kdis … Ab No. 245.1 (pH 7.4)” value in assay [8] was 15 s⁻¹.

B16: Antibody No. 474.1 with VL Y32H, VH Y52H (antibody, V domains shown)
VH: B8 VH with H32Y
VL: B8 VL with Y32H
For B16, in assay [7], the “ΔKdis (pH 6.0)/ΔKdis (pH 7.4)” value is 3.4. For the same molecule, in assay [8], the “Kdis … Ab No. 245.1 (pH 7.4)” value came to 45 s⁻¹.

B17: Antibody No. 474.1 with VL Y31H, VH Y32H, VH Y52H (antibody, V domains shown)
VH: B8 VH
VL: B8 VL with Y31H
With B17, the “ΔKdis (pH 6.0)/ΔKdis (pH 7.4)” value in assay [7] came to 2. For the same molecule, the “Kdis … Ab No. 245.1 (pH 7.4)” value in assay [8] was found to be 61 s⁻¹.

B18: Antibody No. 474.1 with VL Y31H, VH Y52H (second of two rows so labelled, the 40th table r13) (antibody, human IgG1, V domains shown)
VH: B8 VH with H32Y
VL: B8 VL with Y31H
On to B18, for which the “ΔKdis (pH 6.0)/ΔKdis (pH 7.4)” value in assay [7] was 3.8. Besides, the “Kdis … Ab No. 245.1 (pH 7.4)” value in assay [8] turned out to be 37 s⁻¹.

B19: Antibody No. 474.1 with VH Y32H, VH Y33H, VH Y52H (antibody, V domains shown)
VH: B8 VH with Y33H
VL: B8 VL
Regarding B19, the “ΔKdis (pH 6.0)/ΔKdis (pH 7.4)” value in assay [7] came out at 5.2. Further, the “Kdis … Ab No. 245.1 (pH 7.4)” value in assay [8] amounted to 14 s⁻¹.

B20: Spiked Peptide 26 (HRVHGAMELQVQTGK) (peptide)
peptide: HRVHGAMELQVQTGK
notes: as for B1
As for B20, the “percent reduction in ELISA signal” value in assay [1] is 2%; in assay [2], 25%; in assay [3] it was 0%; in assay [4] it was 0%; in assay [5], 17%; in assay [6] it was 0%.
